Assay results as given in patent US20220195043A1 (BEIJING MABWORKS BIOTECH, published 2022).

Key:
[1] = target: T1, human CD32B (HEK293A/human CD32B cells) (human, UniProt P31994 43-310); test: FACS on HEK293A/human CD32B cells, PE F(ab')2 goat anti-human IgG Fc, MFI; bars at 40, 8, 1.6, 0.32 and 0.064 µg/mL
T1 construct: Stably expressed on HEK293A cells; also called FcγRIIB
T1 sequence: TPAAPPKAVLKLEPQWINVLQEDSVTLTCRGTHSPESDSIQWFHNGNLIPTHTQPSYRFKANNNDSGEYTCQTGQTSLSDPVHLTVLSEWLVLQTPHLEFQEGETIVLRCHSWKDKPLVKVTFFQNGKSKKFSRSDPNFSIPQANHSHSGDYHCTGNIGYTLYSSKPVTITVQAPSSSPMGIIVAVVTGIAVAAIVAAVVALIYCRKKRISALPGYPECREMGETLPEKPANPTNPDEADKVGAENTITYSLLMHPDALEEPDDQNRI

[2] = target: T2, human CD32A (HEK293A/human CD32A cells) (human, UniProt P12318 34-317); test: FACS on HEK293A/human CD32A cells, PE F(ab')2 goat anti-human IgG Fc, MFI; bars at 40, 8, 1.6, 0.32 and 0.064 µg/mL
T2 construct: Stably expressed on HEK293A cells; also called FcγRIIA
T2 sequence: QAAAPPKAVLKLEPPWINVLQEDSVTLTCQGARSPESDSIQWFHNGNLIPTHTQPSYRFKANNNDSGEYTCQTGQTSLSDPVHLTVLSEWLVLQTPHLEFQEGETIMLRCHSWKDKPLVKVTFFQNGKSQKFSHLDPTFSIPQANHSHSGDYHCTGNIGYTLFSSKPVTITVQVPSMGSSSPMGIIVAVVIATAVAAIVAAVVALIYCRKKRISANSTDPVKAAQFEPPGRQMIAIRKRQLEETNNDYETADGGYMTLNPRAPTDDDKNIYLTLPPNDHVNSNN

[3] = target: T3, human CD16A (HEK293A/human CD16A cells) (human, UniProt P08637 17-254); test: FACS on HEK293A/human CD16A cells, PE F(ab')2 goat anti-human IgG Fc, MFI; bars at 40, 8, 1.6, 0.32 and 0.064 µg/mL
T3 construct: Stably expressed on HEK293A cells; also called FcγRIIIA

[4] = target: T4, human CD64 (HEK293A/human CD64 cells) (human, UniProt P12314 16-374); test: FACS on HEK293A/human CD64 cells, PE F(ab')2 goat anti-human IgG Fc, MFI; bars at 40, 8, 1.6, 0.32 and 0.064 µg/mL
T4 construct: Stably expressed on HEK293A cells; also called FcγRI

[5] = target: T5, human TCR/CD3 complex on cell surfaces (primary human CD4+ T cells; Jurkat cells; human PBMCs) (human, UniProt P07766 23-207); test: FACS on Jurkat cells, PE goat anti-human IgG, MFI
T5 construct: whole, on cells; Native complex on cells; the γ, δ, ζ and TCR chains of the complex are present on the cells too; also called human CD3 complexes on cell surfaces; human CD3+ T cells

[6] = target: T5, human TCR/CD3 complex on cell surfaces …; test: FACS on primary human T cells, PE goat anti-human IgG, MFI
[7] = target: T6, monkey CD3ε-his (Cat #: 90047-C08H, SinoBiological, China) (monkey, UniProt Q95LI5 22-117); test: ELISA: plate coated with monkey CD3ε-his, antibody titrated, HRP goat anti-human IgG, OD450
T6 construct: Bought protein; also called monkey CD3ε protein; recombinant monkey CD3ε
T6 sequence: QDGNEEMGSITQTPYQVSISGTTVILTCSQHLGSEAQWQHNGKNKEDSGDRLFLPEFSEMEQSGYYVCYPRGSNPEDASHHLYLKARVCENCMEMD

[8] = target: T7, human CD3ε-his (Cat #:10977-H08s, SinoBiological, China) (human, UniProt P07766 23-126); test: ELISA: plate coated with human CD3ε-his, antibody titrated, HRP goat anti-human IgG, OD450
T7 construct: Bought protein; also called human CD3ε protein; recombinant human CD3ε; not shown: his tag

[9] = target: T7, human CD3ε-his (Cat #:10977-H08s, …); test: ELISA: plate coated with human CD3ε-his, antibody titrated, HRP goat anti-human IgG, OD 450
[10] = target: T6, monkey CD3ε-his (Cat #: 90047-C08H, …); test: ELISA: plate coated with monkey CD3ε-his, antibody titrated, HRP goat anti-human IgG, OD 450

T5 sequence (P07766 23-207, one chain of several): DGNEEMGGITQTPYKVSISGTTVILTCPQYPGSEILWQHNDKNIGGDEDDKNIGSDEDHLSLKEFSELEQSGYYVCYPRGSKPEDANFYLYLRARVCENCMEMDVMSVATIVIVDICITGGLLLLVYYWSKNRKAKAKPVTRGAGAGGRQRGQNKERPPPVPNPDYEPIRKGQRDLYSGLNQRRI
T4 sequence (P12314 16-374 limits assumed): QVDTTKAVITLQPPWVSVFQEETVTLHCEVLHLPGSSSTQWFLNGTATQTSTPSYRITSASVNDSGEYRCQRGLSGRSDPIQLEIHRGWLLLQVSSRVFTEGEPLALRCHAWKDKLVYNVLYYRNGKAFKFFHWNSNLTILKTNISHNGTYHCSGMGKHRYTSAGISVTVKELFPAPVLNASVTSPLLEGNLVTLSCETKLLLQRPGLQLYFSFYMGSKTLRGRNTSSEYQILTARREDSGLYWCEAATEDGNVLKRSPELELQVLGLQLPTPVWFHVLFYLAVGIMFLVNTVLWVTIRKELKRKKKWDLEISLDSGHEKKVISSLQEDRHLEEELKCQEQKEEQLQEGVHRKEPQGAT
T3 sequence (P08637 17-254 F176V limits assumed): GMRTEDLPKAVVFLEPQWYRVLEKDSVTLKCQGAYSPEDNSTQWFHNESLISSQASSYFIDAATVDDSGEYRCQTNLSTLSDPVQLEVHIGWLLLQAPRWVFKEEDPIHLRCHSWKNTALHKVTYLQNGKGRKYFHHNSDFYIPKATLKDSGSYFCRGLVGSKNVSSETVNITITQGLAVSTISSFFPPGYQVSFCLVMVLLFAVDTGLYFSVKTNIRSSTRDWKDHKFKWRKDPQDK
T7 sequence (P07766 23-126 limits assumed): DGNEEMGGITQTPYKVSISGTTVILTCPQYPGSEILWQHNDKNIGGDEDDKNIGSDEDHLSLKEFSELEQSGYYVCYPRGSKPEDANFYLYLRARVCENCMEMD

B1: 15H3L3-WT (15H3L3 with wild-typed IgG1 constant region and λ constant region SEQ ID NO: 32) (antibody)
heavy: not shown
light: QAVVTQEPSLTVSPGGTVTLTCQSSTGAVTTNNYANWVQQKPGHAFRGLIGGTKQRAPGVPARFSGSLLGGKAALTLSGVQPEDEAEYYCVLWYSNLWVFGGGTKLTVLGQPKAAPSVTLFPPSSEELQANKATLVCLISDFYPGAVTVAWKADSSPVKAGVETTTPSKQSNNKYAASSYLSLTPEQWKSHRSYSCQVTHEGSTVEKTVAPT
notes: also called 15H3L3 antibody with wild-typed Fc region
Question: Does B1 bind [1]?
Answer: Result: binds

Question: Does B1 bind [2]?
Answer: Result: binds

Question: Does B1 bind [3]?
Answer: Result: binds

Question: Does B1 bind [4]?
Answer: Result: binds

Question: And the “EC50 (read off the curve)” value [5]?
Answer: Its value is about 0.1 µg/mL.

B2: 15H3L3-LLN (15H3L3 with IgG1 constant region L234A/L235A/N297A) (antibody)
heavy: EVQLLESGGGLVQPGGSLRLSCAASGFTFNTYAMNWVRQAPGKGLEWVARIRSKYNNYATYYAISVKDRFTISRDDSKNTLYLQMNSLRAEDTAMYYCVRHGNFGNSYLSYWAYWGQGTLVTVSSASTKGPSVFPLAPSSKSTSGGTAALGCLVKDYFPEPVTVSWNSGALTSGVHTFPAVLQSSGLYSLSSVVTVPSSSLGTQTYICNVNHKPSNTKVDKKVEPKSCDKTHTCPPCPAPEAAGGPSVFLFPPKPKDTLMISRTPEVTCVVVDVSHEDPEVKFNWYVDGVEVHNAKTKPREEQYASTYRVVSVLTVLHQDWLNGKEYKCKVSNKALPAPIEKTISKAKGQPREPQVYTLPPSREEMTKNQVSLTCLVKGFYPSDIAVEWESNGQPENNYKTTPPVLDSDGSFFLYSKLTVDKSRWQQGNVFSCSVMHEALHNHYTQKSLSLSPGK
light: QAVVTQEPSLTVSPGGTVTLTCQSSTGAVTTNNYANWVQQKPGHAFRGLIGGTKQRAPGVPARFSGSLLGGKAALTLSGVQPEDEAEYYCVLWYSNLWVFGGGTKLTVLGQPKAAPSVTLFPPSSEELQANKATLVCLISDFYPGAVTVAWKADSSPVKAGVETTTPSKQSNNKYAASSYLSLTPEQWKSHRSYSCQVTHEGSTVEKTVAPT
Question: What does the source list for B2?
Answer: binding result [2]: no binding (tested: 40 µg/mL); binding result [3]: no binding (tested: 40 µg/mL); binding result [4]: no binding (tested: 40 µg/mL); EC50 (read off the curve) [5]: ~0.09 µg/mL

B3: 15H3L3-LLP (15H3L3 with IgG1 constant region L234A/L235A/P329G) (antibody)
heavy: EVQLLESGGGLVQPGGSLRLSCAASGFTFNTYAMNWVRQAPGKGLEWVARIRSKYNNYATYYAISVKDRFTISRDDSKNTLYLQMNSLRAEDTAMYYCVRHGNFGNSYLSYWAYWGQGTLVTVSSASTKGPSVFPLAPSSKSTSGGTAALGCLVKDYFPEPVTVSWNSGALTSGVHTFPAVLQSSGLYSLSSVVTVPSSSLGTQTYICNVNHKPSNTKVDKKVEPKSCDKTHTCPPCPAPEAAGGPSVFLFPPKPKDTLMISRTPEVTCVVVDVSHEDPEVKFNWYVDGVEVHNAKTKPREEQYNSTYRVVSVLTVLHQDWLNGKEYKCKVSNKALGAPIEKTISKAKGQPREPQVYTLPPSREEMTKNQVSLTCLVKGFYPSDIAVEWESNGQPENNYKTTPPVLDSDGSFFLYSKLTVDKSRWQQGNVFSCSVMHEALHNHYTQKSLSLSPGK
light: QAVVTQEPSLTVSPGGTVTLTCQSSTGAVTTNNYANWVQQKPGHAFRGLIGGTKQRAPGVPARFSGSLLGGKAALTLSGVQPEDEAEYYCVLWYSNLWVFGGGTKLTVLGQPKAAPSVTLFPPSSEELQANKATLVCLISDFYPGAVTVAWKADSSPVKAGVETTTPSKQSNNKYAASSYLSLTPEQWKSHRSYSCQVTHEGSTVEKTVAPT
Question: Does B3 bind [3]?
Answer: Result: no binding (tested: 40 µg/mL)

Question: Does B3 bind [4]?
Answer: Result: no binding (tested: 40 µg/mL)

Question: And the “EC50 (read off the curve)” value [5]?
Answer: Its value is about 0.09 µg/mL.

B4: 15H3L3-LL (15H3L3 with IgG1 constant region L234A/L235A) (antibody)
heavy: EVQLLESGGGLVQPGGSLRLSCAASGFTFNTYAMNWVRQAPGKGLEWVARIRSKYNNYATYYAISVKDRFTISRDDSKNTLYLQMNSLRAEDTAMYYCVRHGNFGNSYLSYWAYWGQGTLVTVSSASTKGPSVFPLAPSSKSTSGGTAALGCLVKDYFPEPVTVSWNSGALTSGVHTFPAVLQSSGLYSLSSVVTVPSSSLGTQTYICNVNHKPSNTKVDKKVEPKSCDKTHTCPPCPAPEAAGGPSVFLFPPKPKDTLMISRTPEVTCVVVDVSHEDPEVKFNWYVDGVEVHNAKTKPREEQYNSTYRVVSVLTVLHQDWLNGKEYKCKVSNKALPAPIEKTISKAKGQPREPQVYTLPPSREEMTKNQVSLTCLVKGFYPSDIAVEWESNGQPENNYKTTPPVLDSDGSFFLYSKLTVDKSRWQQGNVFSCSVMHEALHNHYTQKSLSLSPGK
light: QAVVTQEPSLTVSPGGTVTLTCQSSTGAVTTNNYANWVQQKPGHAFRGLIGGTKQRAPGVPARFSGSLLGGKAALTLSGVQPEDEAEYYCVLWYSNLWVFGGGTKLTVLGQPKAAPSVTLFPPSSEELQANKATLVCLISDFYPGAVTVAWKADSSPVKAGVETTTPSKQSNNKYAASSYLSLTPEQWKSHRSYSCQVTHEGSTVEKTVAPT
Question: Does B4 bind [1]?
Answer: Result: binds

Question: Does B4 bind [2]?
Answer: Result: binds

Question: Does B4 bind [3]?
Answer: Result: no binding (tested: 40 µg/mL)

Question: Does B4 bind [4]?
Answer: Result: binds

Question: What about the “EC50 (read off the curve)” value [5] of the same binder?
Answer: Its value is about 0.09 µg/mL.

B5: 15H3L3-LLNP (15H3L3 with IgG1 constant region L234A/L235A/N297A/P329G) (antibody)
heavy: EVQLLESGGGLVQPGGSLRLSCAASGFTFNTYAMNWVRQAPGKGLEWVARIRSKYNNYATYYAISVKDRFTISRDDSKNTLYLQMNSLRAEDTAMYYCVRHGNFGNSYLSYWAYWGQGTLVTVSSASTKGPSVFPLAPSSKSTSGGTAALGCLVKDYFPEPVTVSWNSGALTSGVHTFPAVLQSSGLYSLSSVVTVPSSSLGTQTYICNVNHKPSNTKVDKKVEPKSCDKTHTCPPCPAPEAAGGPSVFLFPPKPKDTLMISRTPEVTCVVVDVSHEDPEVKFNWYVDGVEVHNAKTKPREEQYASTYRVVSVLTVLHQDWLNGKEYKCKVSNKALGAPIEKTISKAKGQPREPQVYTLPPSREEMTKNQVSLTCLVKGFYPSDIAVEWESNGQPENNYKTTPPVLDSDGSFFLYSKLTVDKSRWQQGNVFSCSVMHEALHNHYTQKSLSLSPGK
light: QAVVTQEPSLTVSPGGTVTLTCQSSTGAVTTNNYANWVQQKPGHAFRGLIGGTKQRAPGVPARFSGSLLGGKAALTLSGVQPEDEAEYYCVLWYSNLWVFGGGTKLTVLGQPKAAPSVTLFPPSSEELQANKATLVCLISDFYPGAVTVAWKADSSPVKAGVETTTPSKQSNNKYAASSYLSLTPEQWKSHRSYSCQVTHEGSTVEKTVAPT
notes: also called 15H3L3-LLPN
Question: What does the source list for B5?
Answer: binding result [1]: no binding (tested: 40 µg/mL); binding result [2]: no binding (tested: 40 µg/mL); binding result [3]: no binding (tested: 40 µg/mL); binding result [4]: no binding (tested: 40 µg/mL); EC50 (read off the curve) [5]: ~0.09 µg/mL

B6: chimeric antibody 19-37 (full length, human IgG1) (antibody, V domains shown)
VH: EVKLLESGGGLVQPKGSLKLSCAASGFTFNTYAMNWVRQAPGKGLEWVARIRSKYNNYATYYAISVKDRFTISRDDSQSILYLQMNNLKTEDTAMYYCVRHGNFGNSYISYWAYWGQGTLVTVSA
VL: QAVVTQESALTTSPGETVTLTCRSSTGAVTTNNYANWVQEKPDHLFTGLIGGTRLSAPGVPARFSGSLIGDKAALTITGAQTEDEAIYFCVLWYSNLWVFGGGTKLTVLG
Question: For B6, which “EC50 (read off the curve)” value [6] is on record?
Answer: Its value is about 100 µg/mL.

B7: humanized anti-CD3 antibody 15H2L3 (human IgG1) (antibody, V domains shown)
VH: EVQLLESGGGLVQPGGSLRLSCAASGFTFNTYAMNWVRQAPGKGLEWVARIRSKYNNYATYYAISVKDRFTISRDNSKNTLYLQMNSLRAEDTAVYYCVKHGNFGNSYLSYWAYWGQGTLVTVSS
VL: QAVVTQEPSLTVSPGGTVTLTCQSSTGAVTTNNYANWVQQKPGHAFRGLIGGTKQRAPGVPARFSGSLLGGKAALTLSGVQPEDEAEYYCVLWYSNLWVFGGGTKLTVLG
Question: With B7 as the binder, how does the “EC50 (read off the curve)” value [7] read?
Answer: Its value is about 90 µg/mL.

Question: And the “EC50 (read off the curve)” value [8]?
Answer: Its value is about 80 µg/mL.

B8: humanized anti-CD3 antibody 26H3L3 (human IgG1) (antibody, V domains shown)
VH: EVQLLESGGGLVQPGGSLRLSCAASGFTFNTYAMNWVRQAPGKGLEWVARIRSKYNNYATYYADSVKDRFTISRDDSKNTLYLQMNSLRAEDTAMYYCVRHGNFGNSYISWWAYWGQGTLVTVSS
VL: QAVVTQEPSLTVSPGGTVTLTCKSSTGAVTTSNYANWVQQKPGHAFRGLIGGTNLHAPGVPARFSGSLLGGKAALTLSGVQPEDEAEYYCALWYSNLWVFGGGTKLTVLG
Question: Which results are given for B8?
Answer: EC50 (read off the curve) [9]: ~0.08 µg/mL; EC50 (read off the curve) [10]: ~0.1 µg/mL
